# Source: the supplement of paper PMC10724198
# Assays:
# Saccharomyces cerevisiae [1] = assay: protein stability index of tFT-peptide fusion in deletion strain of DAS1 (PSI (0-1 scale)); higher = more stable (slower turnover)
# Method: (§1)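 MPS profiling in S. cerevisiae of two library types built from selected 12-aa C-degron peptides (IN1, IN2, LN1, LN3, VN2, R1-R5, W1-W3, Atg1 and Rpa12 C-termini): saturation mutagenesis libraries and C-terminal +1 capping libraries (13 aa). Each peptide is fused to the C-terminus of a sfGFP-mCherry timer, after a GGGS linker. Cells are FACS-sorted into 8 mCherry/sfGFP bins and sequenced. PSI runs from 0 (unstable) to 1 (stable), measured once in wild type and in the das1Δ or doa10Δ background.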
# Saccharomyces cerevisiae [2] = assay: protein stability index of tFT-peptide fusion in wild type (PSI (0-1 scale)); higher = more stable (slower turnover); details: genetic background: wild type
# Method: as §1
# 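For protein stability index of tFT-peptide fusion in deletion strain of DAS1 in this document: PSI is a weighted mean of each variant's read distribution over the sorted stability bins, computed only for variants having over 10 reads in total.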
# 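For protein stability index of tFT-peptide fusion in wild type in this document: PSI derived as read-weighted mean over the 8 sorting bins, only variants exceeding 10 total reads kept, mCherry placed adjacent to the peptide and sfGFP distal.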
Sequence,protein stability index (Saccharomyces cerevisiae [1]),protein stability index (Saccharomyces cerevisiae [2])
LVVYLSQVACIN,0.0854,0.0161
LVVYLVCVACIN,0.0307,0.0125
MTSCGYKFRTNN,0.688,0.212
NRGAVGGWRLVG,0.665,0.164
PDARNHLIKLLN,0.612,0.12
PDKDNHLIKLLN,0.568,0.281
PDKENHLIKLLN,0.602,0.265
PDKHNHLIKLLN,0.622,0.0998
PDKNNHLIKLLN,0.757,0.242
PDKRNHEIKLLN,0.596,0.447
PDKRNHLFKLLN,0.609,0.112
PDKRNHLIKALN,0.589,0.252
PDKRNHLIKLHN,0.593,0.359
PDKRNHLIKLLH,0.612,0.154
PDKRNHLIKLLNC,0.663,0.124
PDKRNHLIKLLNF,0.67,0.176
PDKRNHLIKLLNI,0.662,0.216
PDKRNHLIKLLP,0.596,0.595
PDKRNHLIKLLT,0.622,0.205
PDKRNHLIKLLW,0.586,0.578
PDKRNHLIKLSN,0.609,0.486
PDKRNHLIKLTN,0.568,0.292
PDKRNHLIKNLN,0.54,0.473

Sequence,protein stability index (Saccharomyces cerevisiae [1]),protein stability index (Saccharomyces cerevisiae [2])
PDKRNHLIKQLN,0.575,0.0992
PDKRNHLINLLN,0.605,0.113
PDKRNMLIKLLN,0.722,0.0899
PDKRNRLIKLLN,0.592,0.141
PDKRTHLIKLLN,0.655,0.0881
PDKTNHLIKLLN,0.658,0.144
PDRRNHLIKLLN,0.664,0.118
PDSRNHLIKLLN,0.6,0.125
PHKRNHLIKLLN,0.694,0.141
PILAASFWRVVG,0.678,0.145
PKKRNHLIKLLN,0.596,0.149
PMKRNHLIKLLN,0.569,0.069
PRKRNHLIKLLN,0.633,0.141
PSLAAEFWRVVG,0.697,0.168
PSLAASEWRVVG,0.703,0.535
PSLAASFMRVVG,0.681,0.531
PSLAASFWAVVG,0.686,0.601
PSLAASFWHVVG,0.691,0.46
PSLAASFWQVVG,0.692,0.465
PSLAASFWRDVG,0.695,0.645
PSLAASFWRLVG,0.688,0.135
PSLAASFWRVQG,0.672,0.155
PSLAASFWRVVA,0.68,0.131

Sequence,protein stability index (Saccharomyces cerevisiae [1]),protein stability index (Saccharomyces cerevisiae [2])
PSLAASFWRVVN,0.67,0.133
PSLAASFWRVVY,0.682,0.636
PSLAASFWTVVG,0.708,0.62
PSLAASFYRVVG,0.689,0.625
PSLAASKWRVVG,0.666,0.138
PSLAASLWRVVG,0.673,0.133
PSLAASVWRVVG,0.661,0.162
PSLAPSFWRVVG,0.682,0.136
PSLARSFWRVVG,0.7,0.293
PSNAASFWRVVG,0.686,0.162
PYKRNHLIKLLN,0.6,0.141
QRGAVGGWRLVG,0.655,0.161
RLIDPLPVQFLN,0.62,0.121
RLIHPLPVQFLN,0.616,0.0474
RLINPLPVQFLN,0.668,0.0773
RLIQILPVQFLN,0.546,0.0377
RLIQPLAVQFLN,0.6,0.0616
RLIQPLHVQFLN,0.61,0.054
RLIQPLPVFFLN,0.586,0.0542
RLIQPLPVQFLNH,0.661,0.646
RLIQPLPVQFLNN,0.663,0.432
RLIQPLPVQFLNP,0.664,0.65
RLIQPLPVQFLV,0.643,0.0819

Sequence,protein stability index (Saccharomyces cerevisiae [1]),protein stability index (Saccharomyces cerevisiae [2])
RLIQPLPVQFLY,0.682,0.28
RLIQPLPVQFSN,0.601,0.591
RLIQPLPVQGLN,0.739,0.659
RLIQPLPVQQLN,0.596,0.125
RLIQPLPVQRLN,0.643,0.0805
RLIQPLPVRFLN,0.6,0.0593
RLIQPLQVQFLN,0.63,0.0288
RLIQPWPVQFLN,0.545,0.0573
RLIQYLPVQFLN,0.637,0.0219
RLVQPLPVQFLN,0.628,0.0538
RVVYLSCVACIN,0.0603,0.0144
TDKRNHLIKLLN,0.577,0.12
VRGAVDGWRLVG,0.67,0.156
VRGAVGAWRLVG,0.704,0.144
VRGAVGGTRLVG,0.673,0.63
VRGAVGGWDLVG,0.656,0.664
VRGAVGGWRLEG,0.69,0.642
VRGAVGGWRLIG,0.674,0.146
VRGAVGGWRLVC,0.634,0.143
VRGAVGGWRLVGG,0.682,0.66
